Publication PMC3834822

Molecular target: full-length ParE-ParC55 fusion protein of S. pneumoniae topoisomerase IV (Streptococcus pneumoniae) (UniProt Q59961)
Assay: crystal structure; full-length ParE-ParC55 fusion protein with 34 bp V-site DNA (1:2.2 protein:DNA), MgCl2; sitting drop, 50 mM sodium citrate pH 5.0, 4-7% isopropanol; space group P4(2)2(1)2, 3.7 Å; no ATP

full-length ParE-ParC55 fusion protein of S. pneumoniae topoisomerase IV (from UniProt Q59961 1-647; P72525 1-488) (enzyme)
stoichiometry N: 2
